Measurements as given in the supplement of paper PMC10126150.
± gives the standard deviation of the averaged measurements.

Tested on: ATP
Assay: switch fluorescence ratio, 500 uM ATP over buffer (Cy3 cluster intensity, sum of 5 cycles each) (fold (ratio)); higher = stronger signal-on switching upon ATP binding; sequences stand for … in TCGTCGGCAGCGTCAGATGTGTATAAGAGACAGTTTTTTTTTTTTTTTTTTTTTTTTT…TC
Settings: aptamer strand: ATP DNA aptamer (quencher-CACCTGGGGGAGTATTGCGGAGGAAGG + anchor), 100 nM annealed; ATP concentration: 500 uM
Summary of the method: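 The quencher-labelled ATP aptamer, at 100 nM, was annealed to Cy3-labelled switching-strand clusters on a modified Illumina MiSeq flow-cell. The clusters were imaged in selection buffer, then after 15 min with 500 uM ATP at 22 °C, and this buffer/ATP cycle ran five times with NaOH stripping and re-annealing between runs. Per-cluster fluorescence ratios, summed target-cycle over summed buffer-cycle Cy3 intensity, were averaged per switch-domain sequence. Clusters outside 100-1000 RFU were excluded.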
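Note: ATP exposure 15 min at 22 °C before imaging.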

Sequence	switch fluorescence ratio
TTTTTAGGGT	1 ± 0.073
CTGCTAGATG	0.983 ± 0.051
CGGAGAGGGT	1 ± 0.029
GGTGTCTTAC	1.01 ± 0.029
GGCTGGGCTG	0.991 ± 0.029
GACAAAGATT	1.0037 ± 0.00037
AGAGGATATA	0.988 ± 0.043
AGGGTTTTGA	0.996 ± 0.054
GACCCGCCAA	4.89 ± 1
GCGATGTTTG	0.998 ± 0.023
GGCCAAGTTG	0.994 ± 0.017
GCATGGCACC	1.01 ± 0.025
ATCGAAGGCA	0.9862 ± 0.008
GGTATAAATT	0.939 ± 0.011
TGCTTGTGGG	1.026 ± 0.0015
AAAACACGTA	1.13 ± 0.035
CAAGTATGAG	0.9829 ± 0.0065
CTCGCGGCGG	1.03 ± 0.034
GATGGTCGTT	1.011 ± 0.0079
GAGACTTGTT	0.997 ± 0.042
TGGGGGTGCC	0.9758 ± 0.0037
GTGACTATGG	0.96325 ± 0.00082

Sequence	switch fluorescence ratio
ACGGTGTGGC	1.03 ± 0.072
GGATAGTGCT	0.993 ± 0.012
CCTCAGACAG	1.58 ± 0.052
AGAGTGACGT	0.9848 ± 0.0018
ATGATTACGC	1.06 ± 0.015
ATGTTGGGCA	1.01 ± 0.028
AATATGTTCT	1.02 ± 0.014
AGGGCTGGGT	1 ± 0.033
CAGAAACGGT	1 ± 0.047
CAAGGGGGTA	0.995 ± 0.037
GAGGGTCCTA	0.9994 ± 0.0054
GCGGGGGCAG	0.993 ± 0.013
AGTCTAGGGC	1.04 ± 0.017
GGCTTGGCGT	0.98 ± 0.034
AGGGGAATAG	1.01 ± 0.016
TATAAAAATT	1.02 ± 0.025
CATGCGCGGA	1.147 ± 0.0013
TATTTGAAAG	1 ± 0.04
GGTGTCGGGT	0.99 ± 0.012
TTCTTTCGTC	0.979 ± 0.021
AAGTACTTGG	1.17 ± 0.017
CACGTTATAG	1.19 ± 0.026

Sequence	switch fluorescence ratio
GATTCGCGGC	1.16 ± 0.02
TCTGGGAAGT	0.986 ± 0.011
AAGATGTAAT	1.01 ± 0.0079
GCGTACTGTG	0.994 ± 0.022
CGGGACCGGA	1.02 ± 0.073
GTGGGAGGGA	1.02 ± 0.043
AACAGGATGC	1.027 ± 0.0039
GGAACTGGCG	0.938 ± 0.094
TTTTATTCAG	1 ± 0.03
GTTTCCGATT	0.991 ± 0.019
GGGTATTTTG	0.997 ± 0.046
AATCCATGGC	0.98678 ± 6.8e-05
ATACAAGGCT	1.02 ± 0.03
TTAGTATCTC	1.03 ± 0.047
AAGGGGATTA	0.99 ± 0.033
TCAGGGTCCG	0.961 ± 0.017
GCCGTTTTTT	0.97 ± 0.04
AATGTAATCA	0.997 ± 0.024
TTATCCGGAT	0.933 ± 0.11
TTTAGTGGGG	0.97 ± 0.01
AATTAACGGG	1.02 ± 0.019
TTTGGATGCT	1.05 ± 0.14

Sequence	switch fluorescence ratio
TCTGAGGGGG	1 ± 0.027
GTTGGGGCTT	1.021 ± 0.002
TTTATAATTA	0.982 ± 0.013
ATCGGGGTTG	0.958 ± 0.017
CGATATGATG	1.01 ± 0.062
AAAGGTTTCG	0.989 ± 0.015
GGGGAAGGGG	1.03 ± 0.058
TTTTATTTTC	0.993 ± 0.027
TTCCAGGTTC	1.04 ± 0.012
GCGGTGGGGA	1.03 ± 0.027
AATTTTAGGT	0.959 ± 0.015
AAGTTTGAGT	0.982 ± 0.022
GAAAAAGGCA	0.974 ± 0.033
TTGTGCGAAA	1.01 ± 0.059
TTTTTGTTTC	1.02 ± 0.046
TTCAGCGGGA	0.992 ± 0.019
GCAGATCGGT	0.967 ± 0.019
GATAGTATGC	0.961 ± 0.059
CAGAGACTTT	0.994 ± 0.012
